Measured values from patent publication US20090028889A1, “Novel Polypeptide Ligands For Toll-Like Receptor 2 (TLR2)” (VAXINNATE CORPORATION, priority 2005, published 2009).

target: human TLR2 (hTLR2) (human) (UniProt O60603); test: T7 phage display biopanning, 4 rounds, on 293.hTLR2 cells after negative panning on parental HEK293; percent of 109 sequenced clones; conditions: not given
Sequence (O60603 21-784 limits assumed): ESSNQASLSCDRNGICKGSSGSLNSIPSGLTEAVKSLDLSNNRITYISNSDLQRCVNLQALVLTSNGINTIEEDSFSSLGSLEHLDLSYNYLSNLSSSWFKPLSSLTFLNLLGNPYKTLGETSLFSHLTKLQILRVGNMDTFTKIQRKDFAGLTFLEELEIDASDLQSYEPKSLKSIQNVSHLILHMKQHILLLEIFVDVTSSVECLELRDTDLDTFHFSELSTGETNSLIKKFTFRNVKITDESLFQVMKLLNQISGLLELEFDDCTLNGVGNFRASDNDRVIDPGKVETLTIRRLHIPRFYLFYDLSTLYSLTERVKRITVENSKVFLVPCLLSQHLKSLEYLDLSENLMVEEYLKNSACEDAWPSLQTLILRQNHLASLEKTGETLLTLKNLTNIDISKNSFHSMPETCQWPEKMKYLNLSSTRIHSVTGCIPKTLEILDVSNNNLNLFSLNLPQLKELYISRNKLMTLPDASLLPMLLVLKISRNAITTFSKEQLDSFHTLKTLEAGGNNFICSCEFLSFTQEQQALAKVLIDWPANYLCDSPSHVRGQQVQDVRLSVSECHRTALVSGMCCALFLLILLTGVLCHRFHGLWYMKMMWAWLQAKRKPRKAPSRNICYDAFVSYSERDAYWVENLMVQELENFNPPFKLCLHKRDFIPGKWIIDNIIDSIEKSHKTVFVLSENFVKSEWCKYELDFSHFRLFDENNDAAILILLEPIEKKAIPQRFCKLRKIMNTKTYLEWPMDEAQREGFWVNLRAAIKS

In order of rising % ABUNDANCE:
1. NYRRW (T7 phage-displayed peptide)  0.9%
2. IMWFP (T7 phage-displayed peptide)  0.9%
3. ADTHQ (T7 phage-displayed peptide)  0.9%
4. LRQGR (T7 phage-displayed peptide)  0.9%
5. AWAGT (T7 phage-displayed peptide)  0.9%
6. IHVVP (T7 phage-displayed peptide)  0.9%
7. GPLLH (T7 phage-displayed peptide)  0.9%
8. HLLPG (T7 phage-displayed peptide)  0.9%
9. RVVAP (T7 phage-displayed peptide)  0.9%
10. SHIAL (T7 phage-displayed peptide)  0.9%
11. IYKLA (T7 phage-displayed peptide)  0.9%
12. MFGVP (T7 phage-displayed peptide)  0.9%
13. THKPK (T7 phage-displayed peptide)  0.9%
14. VGKND (T7 phage-displayed peptide)  0.9%
15. KYMPH (T7 phage-displayed peptide)  0.9%
16. CVWLQ (T7 phage-displayed peptide)  0.9%
17. KGWF (T7 phage-displayed peptide)  0.9%
18. NPPTT (T7 phage-displayed peptide)  0.92%
19. GGKLS (T7 phage-displayed peptide)  0.92%
20. AVRLS (T7 phage-displayed peptide)  0.92%
21. SGGLF (T7 phage-displayed peptide)  0.92%
22. PESGV (T7 phage-displayed peptide)  0.92%
23. CGPKL (T7 phage-displayed peptide)  0.92%
24. MRRIL (T7 phage-displayed peptide)  0.92%
25. NRFGL (T7 phage-displayed peptide)  0.92%
26. SRHGR (T7 phage-displayed peptide)  0.92%
27. FCGLG (T7 phage-displayed peptide)  0.92%
28. RGGF (T7 phage-displayed peptide)  0.92%
29. IMRHP (T7 phage-displayed peptide)  0.92%
30. AGCFS (T7 phage-displayed peptide)  0.92%
31. NRTVF (T7 phage-displayed peptide)  0.92%
32. EVCAP (T7 phage-displayed peptide)  0.92%
33. ACGVY (T7 phage-displayed peptide)  0.92%
34. KCQSF (T7 phage-displayed peptide)  0.92%
35. MISS (T7 phage-displayed peptide)  0.92%
36. MGTLP (T7 phage-displayed peptide)  1.8%
37. IGRFR (T7 phage-displayed peptide)  2.7%
38. RGGSK (T7 phage-displayed peptide)  3.67%
39. VSEGV (T7 phage-displayed peptide)  3.67%

target: T1, TLR2 (Homo sapiens, UniProt O60603); test: NF-κB-dependent luciferase reporter assay, parental 293 vs 293.hTLR2 cells; assay type: cell-based; design: host or cells: HEK293 (293.luc, stably carrying κB-LUC reporter); conditions: 293.hTLR2 vs parental 293 cells, four to five hours at 37° C.
Protocol: NF-κB-dependent luciferase reporter assay: Parental 293 cells and 293.hTLR2 cells (see Example 1, above) were incubated with an aliquot of test peptide four to five hours at 37° C. NF-κB-dependent luciferase activity was measured using the Steady-Glo Luciferase Assay System by Promega (E2510), following the manufacturer's instructions. Luminescence was measured on a microplate luminometer (FARCyte, Amersham) and expressed as relative luminescence units (RLU) after subtracting the background reading obtained by exposing cells to the DMEM medium alone.
The biological activity of the TLR2-binding peptides isolated by the screening method was confirmed using the isolated peptides in an NF-κB-dependent reporter gene assay. For this assay, a synthetic monomer of the DPDSG motif (SEQ ID NO: 5), or a concatemerized copy (DPDSG)5, was incubated on parental HEK293 cells containing an NF-κB-dependent luciferase reporter construct (293) and on TLR2-overexpressing HEK293 cells containing an NF-κB-dependent luciferase reporter construct (293.hTLR2, see Example 1, above). Luciferase activity was then measured. […] Thus, the TLR2-binding peptides identified by the screening assay are functional peptide TLR2 ligands.
Target sequence in this assay (O60603 21-784): as the sequence (O60603 21-784 limits assumed) above

In the case of “(DPDSG)5: concatemerized copy of the DPDSG motif, made by solid phase synthesis (DPDSGDPDSGDPDSGDPDSGDPDSG)”, the “luciferase reporter gene expression” value is reported as “activated luciferase reporter gene expression in a TLR2-dependent manner”.
In the case of “DPDSG: peptide TLR2 ligand from phage display; also made as synthetic monomer”, the “luciferase reporter gene expression” value is reported as “activated luciferase reporter gene expression in a TLR2-dependent manner”.

target: T1, TLR2; test: not given; conditions: cited from earlier work
Target sequence in this assay (O60603 21-784, species assumed): as the sequence (O60603 21-784 limits assumed) above

For ALTTE, the “activation of monocytes and epithelial cells via TLR2 signaling” value is given as “activate monocytes and epithelial cells via TLR2 signaling”.
